Earlier results on 1 substance are cited in paper PMC2797979 (Diabetes Care, 2009).

For this data set the following is noted: long-acting insulin analogs.

Turning to detemir, the Elimination half-life is recorded as 24 h.
